Bridge positions count the residues as written; N and C are the ends.
Experiments:
[1] = target: DD(E) soluble fibrin-derived polypeptide (UniProt P02671); assay: Kd against DD(E) target, 'as described above'
dried fibrin = target: T1, dried fibrin (UniProt P02671 36-629; P02675 45-491; P02679 27-437, limits assumed); assay: dried fibrin plate, bound vs free peptide
T1 construct: Polymerised fibrin made in 96-well plates from fibrinogen and thrombin, dried at 37 C and rehydrated; also called (rehydrated) dried fibrin; fibrin target
T1 sequence (looked up) 1: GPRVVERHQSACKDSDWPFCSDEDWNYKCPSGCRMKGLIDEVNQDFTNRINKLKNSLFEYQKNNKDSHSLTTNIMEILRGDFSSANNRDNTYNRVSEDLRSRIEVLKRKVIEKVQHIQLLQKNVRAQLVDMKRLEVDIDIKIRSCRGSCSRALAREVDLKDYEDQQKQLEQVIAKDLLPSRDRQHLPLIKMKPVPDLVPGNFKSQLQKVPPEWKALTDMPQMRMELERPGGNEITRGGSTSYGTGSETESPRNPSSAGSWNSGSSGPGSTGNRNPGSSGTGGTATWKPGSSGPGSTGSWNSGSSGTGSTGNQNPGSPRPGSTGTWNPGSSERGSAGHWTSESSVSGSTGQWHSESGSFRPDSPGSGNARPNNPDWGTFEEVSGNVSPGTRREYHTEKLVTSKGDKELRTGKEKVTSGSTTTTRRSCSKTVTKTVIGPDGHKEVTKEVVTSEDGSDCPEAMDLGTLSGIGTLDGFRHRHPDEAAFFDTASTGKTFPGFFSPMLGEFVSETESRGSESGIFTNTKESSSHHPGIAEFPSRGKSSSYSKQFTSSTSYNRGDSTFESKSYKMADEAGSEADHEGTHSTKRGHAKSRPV
T1 sequence (looked up) 2: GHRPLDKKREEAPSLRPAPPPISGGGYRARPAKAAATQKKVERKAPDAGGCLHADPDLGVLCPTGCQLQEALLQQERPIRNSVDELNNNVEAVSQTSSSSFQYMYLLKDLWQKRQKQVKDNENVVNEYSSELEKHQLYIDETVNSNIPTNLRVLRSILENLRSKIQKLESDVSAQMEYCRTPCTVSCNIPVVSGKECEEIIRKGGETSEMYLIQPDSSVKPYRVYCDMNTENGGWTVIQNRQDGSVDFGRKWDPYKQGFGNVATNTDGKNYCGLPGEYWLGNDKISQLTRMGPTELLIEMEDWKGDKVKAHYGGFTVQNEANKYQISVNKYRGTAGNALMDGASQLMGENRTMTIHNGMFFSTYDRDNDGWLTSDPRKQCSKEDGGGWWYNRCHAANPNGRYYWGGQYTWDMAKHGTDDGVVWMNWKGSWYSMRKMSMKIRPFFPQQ
T1 sequence (looked up) 3: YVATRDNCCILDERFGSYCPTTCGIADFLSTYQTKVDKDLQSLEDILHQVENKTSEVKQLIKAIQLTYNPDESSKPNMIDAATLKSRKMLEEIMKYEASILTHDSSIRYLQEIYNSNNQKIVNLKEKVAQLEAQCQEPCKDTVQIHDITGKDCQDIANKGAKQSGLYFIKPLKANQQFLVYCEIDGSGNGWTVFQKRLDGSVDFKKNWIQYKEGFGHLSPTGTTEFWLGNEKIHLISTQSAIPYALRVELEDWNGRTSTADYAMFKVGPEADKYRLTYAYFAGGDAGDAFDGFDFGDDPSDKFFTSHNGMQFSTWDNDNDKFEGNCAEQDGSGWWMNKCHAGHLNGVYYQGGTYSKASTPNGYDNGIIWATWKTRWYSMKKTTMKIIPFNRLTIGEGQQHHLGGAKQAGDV
Description: A fibrinogen solution was prepared at 10 mg/ml (or at twice the concentration of fibrin desired) in TBS buffer (50 mM Tris, 150 mM NaCl, pH 7.4). The fibrinogen solution typically contained ˜17 mM citrate. Subsequently, a solution was prepared containing 2 U/ml thrombin, 20 mM CaCl₂, and 5 mM ε-aminocaproic acid in TBS. The fibrinogen solution and thrombin solution were mixed 1:1 in the wells of a 96-well plate, aliquoting 50 μL of each solution in each well (total volume=100 μL). The plates were evaporated to dryness overnight at 37° C. The polypeptide to be tested, dissolved in water, was added to each well at concentrations between 1-200 μM. […] The plate containing the peptide and (rehydrated) dried fibrin was covered and incubated at 37° C. on a shaker table for 2 hours.
The supernatant in each well was removed by pipette and the concentration of the polypeptide was measured by mass spectrometry. The ion current detected at the mass of the peptide was monitored after injection of a sample into the mass spectrometer. The area-under-the-peak was quantitated and compared to standards of known concentration. The concentration of peptide in the supernatant is equal to the concentration of free peptide. The concentration of bound peptide was determined by subtracting the concentration of free peptide from the total (starting) concentration. A plot of [Bound Peptide] vs. [Free Peptide] was used to determine the Kd and the concentration of bound peptide at saturation. The curve was fit to the equation: [Bound]=N×[Free]/(Kd+[Free]) where [Bound] is the concentration of bound polypeptide, [Free] is the concentration of free polypeptide, Kd is the dissociation constant (equal to the reciprocal of Kₐ) and N is the concentration of binding sites. The number of binding sites per fibrin molecule was equal to the lo concentration of binding sites determined by the [Bound Polypeptide] vs. [Free Polypeptide] plot, divided by the concentration of fibrin (15 μM) used in the assay.

Row | Binder | Kd [1] [µM] | Kd (dried fibrin) [µM]
1 | NHGCYNSYGVPYCDYS (peptide, not shown: large carriers) | 2.7 | 
2 | RFLCYDSYYHWWCSHH (peptide, not shown: large carriers) | 10 | 
3 | WFHCPYDLCHIL (peptide, not shown: large carriers) | 1.4 | 
4 | QWECPYGLCWIQ (peptide, not shown: large carriers) | 0.74 | 
5 | H-LACDYYGTCLD-NH2 (disulfide 3-9; SMILES CC(C)C[C@H](NC(=O)[C@@H]1CSSC[C@H](NC(=O)[C@H](C)NC(=O)[C@@H](N)CC(C)C)C(=O)N[C@@H](CC(=O)O)C(=O)N[C@@H](Cc2ccc(O)cc2)C(=O)N[C@@H](Cc2ccc(O)cc2)C(=O)NCC(=O)N[C@@H]([C@@H](C)O)C(=O)N1)C(=O)N[C@@H](CC(=O)O)C(N)=O) [alanine scan peptide LACDYYGTCLD] |  | 31
6 | H-LPCDAYGTCLD-NH2 (disulfide 3-9; SMILES CC(C)C[C@H](NC(=O)[C@@H]1CSSC[C@H](NC(=O)[C@@H]2CCCN2C(=O)[C@@H](N)CC(C)C)C(=O)N[C@@H](CC(=O)O)C(=O)N[C@@H](C)C(=O)N[C@@H](Cc2ccc(O)cc2)C(=O)NCC(=O)N[C@@H]([C@@H](C)O)C(=O)N1)C(=O)N[C@@H](CC(=O)O)C(N)=O) [alanine scan peptide LPCDAYGTCLD] |  | 16

— patent US20050261472A1, “Binding moieties for fibrin” (Dyax Corp., priority 1999, published 2005)
